Source: PMC4505822

Molecular target: wild-type full-length recombinant human prion protein (human) (UniProt P04156)
Experiment: AFM height measurement with a calibration curve of marker proteins

wild-type full-length recombinant human prion protein (from UniProt P04156 23-231) (natural protein)
stoichiometry N: 11 to 22 monomers
